Test results from patent US20250388640A1 (SYNTHEKINE, published 2025).

What was measured:
[1] = target: T1, hIL-12 receptor signaling complex (hIL-12Rβ1 and hIL-12Rβ2) (human, UniProt P42701 24-662; Q99665 24-862); experiment: cell-based or functional assay
[2] = target: T1, hIL-12 receptor signaling complex …; experiment: cell-based or functional assay; remark: listed apart in the source

T1 sequence (Q99665 24-862, chain 2 of 2, other chains not shown): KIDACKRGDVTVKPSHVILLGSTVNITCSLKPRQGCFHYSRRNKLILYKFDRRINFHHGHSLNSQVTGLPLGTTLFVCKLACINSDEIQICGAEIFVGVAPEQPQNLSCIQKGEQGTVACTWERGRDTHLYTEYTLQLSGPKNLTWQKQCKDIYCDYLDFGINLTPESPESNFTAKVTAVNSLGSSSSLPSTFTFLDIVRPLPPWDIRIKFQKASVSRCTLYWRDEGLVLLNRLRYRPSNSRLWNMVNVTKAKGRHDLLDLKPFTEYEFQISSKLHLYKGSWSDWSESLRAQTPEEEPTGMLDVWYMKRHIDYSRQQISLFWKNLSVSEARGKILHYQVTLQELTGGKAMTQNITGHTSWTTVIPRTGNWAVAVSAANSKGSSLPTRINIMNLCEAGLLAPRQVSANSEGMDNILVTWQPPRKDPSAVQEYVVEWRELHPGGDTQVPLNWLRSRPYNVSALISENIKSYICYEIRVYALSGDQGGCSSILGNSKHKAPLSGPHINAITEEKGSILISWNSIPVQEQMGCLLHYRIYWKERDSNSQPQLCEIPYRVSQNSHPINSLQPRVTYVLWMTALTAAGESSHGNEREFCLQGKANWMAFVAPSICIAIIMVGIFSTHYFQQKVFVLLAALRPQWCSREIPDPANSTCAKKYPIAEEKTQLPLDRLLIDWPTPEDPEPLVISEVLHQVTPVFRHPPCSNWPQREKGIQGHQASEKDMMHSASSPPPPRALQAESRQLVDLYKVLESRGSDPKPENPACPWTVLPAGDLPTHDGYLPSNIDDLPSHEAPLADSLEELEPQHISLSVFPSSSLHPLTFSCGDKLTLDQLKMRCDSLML

B1: human IL12 mutein, hIL-12p40 E81A, F82T with hIL-12p35-8X His (ligand)
chain 1: IWELKKDVYVVELDWYPDAPGEMVVLTCDTPEEDGITWTLDQSSEVLGSGKTLTIQVKATGDAGQYTCHKGGEVLSHSLLLLHKKEDGIWSTDILKDQKEPKNKTFLRCEAKNYSGRFTCWWLTTISTDLTFSVKSSRGSSDPQGVTCGAATLSAERVRGDNKEYEYSVECQEDSACPAAEESLPIEVMVDAVHKLKYENYTSSFFIRDIIKPDPPKNLQLKPLKNSRQVEVSWEYPDTWSTPHSYFSLTFCVQVQGKSKREKKDRVFTDKTSATVICRKNASISVRAQDRYYSSSWSEWASVPCS
chain 2: RNLPVATPDPGMFPCLHHSQNLLRAVSNMLQKARQTLEFYPCTSEEIDHEDITKDKTSTVEACLPLELTKNESCLNSRETSFITNGSCLASRKTSFMMALCLSSIYEDLKMYQVEFKTMNAKLLMDPKRQIFLDQNMLAVIDELMQALNFNSETVPQKSSLEEPDFYKTKIKLCILLHAFRIRAVTIDRVMSYLNASGSHHHHHHHH
In the case of B1, the “pSTAT4 [%+] EC50, CD8+ T Cells” value [1] is reported as 0.87 nM, the “pSTAT4 [%+] EC50, CD56hi NK Cells” value [1] is reported as 1.9 nM and the “pSTAT4 [%+] Emax, CD8+ T Cells” value [1] is reported as 81.2 %+. For the same binder, the “pSTAT4 [%+] Emax, CD56hi NK Cells” value [1] was 88.2 %+, the “pSTAT4 [gMFI] EC50, CD8+ T Cells” value [2] was 4.5 nM and the “pSTAT4 [gMFI] EC50, CD56hi NK Cells” value [2] was 10.3 nM. The “pSTAT4 [gMFI] Emax, CD8+ T Cells” value [2] was 101000 gMFI and the “pSTAT4 [gMFI] Emax, CD56hi NK Cells” value [2] was 29300 gMFI.

B2: human IL12 mutein, hIL-12p40 E81A, F82R with hIL-12p35-8X His (ligand)
chain 1: IWELKKDVYVVELDWYPDAPGEMVVLTCDTPEEDGITWTLDQSSEVLGSGKTLTIQVKARGDAGQYTCHKGGEVLSHSLLLLHKKEDGIWSTDILKDQKEPKNKTFLRCEAKNYSGRFTCWWLTTISTDLTFSVKSSRGSSDPQGVTCGAATLSAERVRGDNKEYEYSVECQEDSACPAAEESLPIEVMVDAVHKLKYENYTSSFFIRDIIKPDPPKNLQLKPLKNSRQVEVSWEYPDTWSTPHSYFSLTFCVQVQGKSKREKKDRVFTDKTSATVICRKNASISVRAQDRYYSSSWSEWASVPCS
chain 2: RNLPVATPDPGMFPCLHHSQNLLRAVSNMLQKARQTLEFYPCTSEEIDHEDITKDKTSTVEACLPLELTKNESCLNSRETSFITNGSCLASRKTSFMMALCLSSIYEDLKMYQVEFKTMNAKLLMDPKRQIFLDQNMLAVIDELMQALNFNSETVPQKSSLEEPDFYKTKIKLCILLHAFRIRAVTIDRVMSYLNASGSHHHHHHHH
For B2, the “pSTAT4 [%+] EC50, CD8+ T Cells” value [1] was 0.98 nM, the “pSTAT4 [%+] EC50, CD56hi NK Cells” value [1] was 1.36 nM and the “pSTAT4 [%+] Emax, CD8+ T Cells” value [1] was 80.2 %+. For the same binder, the “pSTAT4 [%+] Emax, CD56hi NK Cells” value [1] was 86.9 %+, the “pSTAT4 [gMFI] EC50, CD8+ T Cells” value [2] was 5.54 nM and the “pSTAT4 [gMFI] EC50, CD56hi NK Cells” value [2] was 7.62 nM. The “pSTAT4 [gMFI] Emax, CD8+ T Cells” value [2] was 101000 gMFI and the “pSTAT4 [gMFI] Emax, CD56hi NK Cells” value [2] was 28000 gMFI.

B3: human IL12 mutein, hIL-12p40 E81A, F82Y with hIL-12p35-8X His (ligand)
chain 1: IWELKKDVYVVELDWYPDAPGEMVVLTCDTPEEDGITWTLDQSSEVLGSGKTLTIQVKAYGDAGQYTCHKGGEVLSHSLLLLHKKEDGIWSTDILKDQKEPKNKTFLRCEAKNYSGRFTCWWLTTISTDLTFSVKSSRGSSDPQGVTCGAATLSAERVRGDNKEYEYSVECQEDSACPAAEESLPIEVMVDAVHKLKYENYTSSFFIRDIIKPDPPKNLQLKPLKNSRQVEVSWEYPDTWSTPHSYFSLTFCVQVQGKSKREKKDRVFTDKTSATVICRKNASISVRAQDRYYSSSWSEWASVPCS
chain 2: RNLPVATPDPGMFPCLHHSQNLLRAVSNMLQKARQTLEFYPCTSEEIDHEDITKDKTSTVEACLPLELTKNESCLNSRETSFITNGSCLASRKTSFMMALCLSSIYEDLKMYQVEFKTMNAKLLMDPKRQIFLDQNMLAVIDELMQALNFNSETVPQKSSLEEPDFYKTKIKLCILLHAFRIRAVTIDRVMSYLNASGSHHHHHHHH
With B3 the “pSTAT4 [%+] EC50, CD8+ T Cells” value [1] was 90 pM, the “pSTAT4 [%+] EC50, CD56hi NK Cells” value [1] was 0.19 nM and the “pSTAT4 [%+] Emax, CD8+ T Cells” value [1] was 83.5 %+. For the same binder, the “pSTAT4 [%+] Emax, CD56hi NK Cells” value [1] was 91.7 %+, the “pSTAT4 [gMFI] EC50, CD8+ T Cells” value [2] was 0.37 nM and the “pSTAT4 [gMFI] EC50, CD56hi NK Cells” value [2] was 1.19 nM. For the same binder, the “pSTAT4 [gMFI] Emax, CD8+ T Cells” value [2] was 108000 gMFI and the “pSTAT4 [gMFI] Emax, CD56hi NK Cells” value [2] was 35700 gMFI.

B4: human IL12 mutein, hIL-12p40 E81A, F82W with hIL-12p35-8X His (ligand)
chain 1: IWELKKDVYVVELDWYPDAPGEMVVLTCDTPEEDGITWTLDQSSEVLGSGKTLTIQVKAWGDAGQYTCHKGGEVLSHSLLLLHKKEDGIWSTDILKDQKEPKNKTFLRCEAKNYSGRFTCWWLTTISTDLTFSVKSSRGSSDPQGVTCGAATLSAERVRGDNKEYEYSVECQEDSACPAAEESLPIEVMVDAVHKLKYENYTSSFFIRDIIKPDPPKNLQLKPLKNSRQVEVSWEYPDTWSTPHSYFSLTFCVQVQGKSKREKKDRVFTDKTSATVICRKNASISVRAQDRYYSSSWSEWASVPCS
chain 2: RNLPVATPDPGMFPCLHHSQNLLRAVSNMLQKARQTLEFYPCTSEEIDHEDITKDKTSTVEACLPLELTKNESCLNSRETSFITNGSCLASRKTSFMMALCLSSIYEDLKMYQVEFKTMNAKLLMDPKRQIFLDQNMLAVIDELMQALNFNSETVPQKSSLEEPDFYKTKIKLCILLHAFRIRAVTIDRVMSYLNASGSHHHHHHHH
With B4 the “pSTAT4 [%+] EC50, CD8+ T Cells” value [1] was 0.29 nM, the “pSTAT4 [%+] EC50, CD56hi NK Cells” value [1] was 0.39 nM and the “pSTAT4 [%+] Emax, CD8+ T Cells” value [1] was 84.1 %+. For the same binder, the “pSTAT4 [%+] Emax, CD56hi NK Cells” value [1] was 88.4 %+, the “pSTAT4 [gMFI] EC50, CD8+ T Cells” value [2] was 1.22 nM and the “pSTAT4 [gMFI] EC50, CD56hi NK Cells” value [2] was 1.82 nM. For the same binder, the “pSTAT4 [gMFI] Emax, CD8+ T Cells” value [2] was 111000 gMFI and the “pSTAT4 [gMFI] Emax, CD56hi NK Cells” value [2] was 30700 gMFI.

B5: human IL12 mutein, hIL-12p40 E81A, F82D with hIL-12p35-8X His (ligand)
chain 1: IWELKKDVYVVELDWYPDAPGEMVVLTCDTPEEDGITWTLDQSSEVLGSGKTLTIQVKADGDAGQYTCHKGGEVLSHSLLLLHKKEDGIWSTDILKDQKEPKNKTFLRCEAKNYSGRFTCWWLTTISTDLTFSVKSSRGSSDPQGVTCGAATLSAERVRGDNKEYEYSVECQEDSACPAAEESLPIEVMVDAVHKLKYENYTSSFFIRDIIKPDPPKNLQLKPLKNSRQVEVSWEYPDTWSTPHSYFSLTFCVQVQGKSKREKKDRVFTDKTSATVICRKNASISVRAQDRYYSSSWSEWASVPCS
chain 2: RNLPVATPDPGMFPCLHHSQNLLRAVSNMLQKARQTLEFYPCTSEEIDHEDITKDKTSTVEACLPLELTKNESCLNSRETSFITNGSCLASRKTSFMMALCLSSIYEDLKMYQVEFKTMNAKLLMDPKRQIFLDQNMLAVIDELMQALNFNSETVPQKSSLEEPDFYKTKIKLCILLHAFRIRAVTIDRVMSYLNASGSHHHHHHHH
For B5, the “pSTAT4 [%+] EC50, CD8+ T Cells” value [1] was 2.13 nM, the “pSTAT4 [%+] EC50, CD56hi NK Cells” value [1] was 3.51 nM and the “pSTAT4 [%+] Emax, CD8+ T Cells” value [1] was 76.6 %+. For the same binder, the “pSTAT4 [%+] Emax, CD56hi NK Cells” value [1] was 84.1 %+, the “pSTAT4 [gMFI] EC50, CD8+ T Cells” value [2] was 8.72 nM and the “pSTAT4 [gMFI] EC50, CD56hi NK Cells” value [2] was 15.9 nM. For the same binder, the “pSTAT4 [gMFI] Emax, CD8+ T Cells” value [2] was 84000 gMFI and the “pSTAT4 [gMFI] Emax, CD56hi NK Cells” value [2] was 23300 gMFI.

B6: human IL12 mutein, hIL-12p40 E81A, F82V with hIL-12p35-8X His (ligand)
chain 1: IWELKKDVYVVELDWYPDAPGEMVVLTCDTPEEDGITWTLDQSSEVLGSGKTLTIQVKAVGDAGQYTCHKGGEVLSHSLLLLHKKEDGIWSTDILKDQKEPKNKTFLRCEAKNYSGRFTCWWLTTISTDLTFSVKSSRGSSDPQGVTCGAATLSAERVRGDNKEYEYSVECQEDSACPAAEESLPIEVMVDAVHKLKYENYTSSFFIRDIIKPDPPKNLQLKPLKNSRQVEVSWEYPDTWSTPHSYFSLTFCVQVQGKSKREKKDRVFTDKTSATVICRKNASISVRAQDRYYSSSWSEWASVPCS
chain 2: RNLPVATPDPGMFPCLHHSQNLLRAVSNMLQKARQTLEFYPCTSEEIDHEDITKDKTSTVEACLPLELTKNESCLNSRETSFITNGSCLASRKTSFMMALCLSSIYEDLKMYQVEFKTMNAKLLMDPKRQIFLDQNMLAVIDELMQALNFNSETVPQKSSLEEPDFYKTKIKLCILLHAFRIRAVTIDRVMSYLNASGSHHHHHHHH
In the case of B6, the “pSTAT4 [%+] EC50, CD8+ T Cells” value [1] is reported as 0.76 nM, the “pSTAT4 [%+] EC50, CD56hi NK Cells” value [1] is reported as 1.15 nM and the “pSTAT4 [%+] Emax, CD8+ T Cells” value [1] is reported as 80.9 %+. For the same binder, the “pSTAT4 [%+] Emax, CD56hi NK Cells” value [1] was 89.3 %+, the “pSTAT4 [gMFI] EC50, CD8+ T Cells” value [2] was 4.33 nM and the “pSTAT4 [gMFI] EC50, CD56hi NK Cells” value [2] was 17.2 nM. For the same binder, the “pSTAT4 [gMFI] Emax, CD8+ T Cells” value [2] was 102000 gMFI and the “pSTAT4 [gMFI] Emax, CD56hi NK Cells” value [2] was 36800 gMFI.
